Key:
GLD-1 KH-QUA2 [1] = target: T1, GLD-1 KH-QUA2 (Caenorhabditis elegans, UniProt Q17339 195-336); assay: NMR HSQC titration
T1 sequence: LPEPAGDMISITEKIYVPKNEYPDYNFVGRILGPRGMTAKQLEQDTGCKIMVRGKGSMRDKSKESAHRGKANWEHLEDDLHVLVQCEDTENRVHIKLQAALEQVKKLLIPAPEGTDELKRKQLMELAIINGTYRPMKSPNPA

GLD-1 KH-QUA2 [2] = target: T1, GLD-1 KH-QUA2; assay: ITC
GLD-1 KH-QUA2 P228A = target: T2, GLD-1 KH-QUA2 P228A (Caenorhabditis elegans, UniProt Q17339 195-336, P228A); assay: ITC
T2 sequence: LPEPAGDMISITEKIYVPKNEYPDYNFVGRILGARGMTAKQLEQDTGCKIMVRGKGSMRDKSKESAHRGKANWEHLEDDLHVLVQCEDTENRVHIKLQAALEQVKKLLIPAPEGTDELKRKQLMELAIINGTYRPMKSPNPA

GLD-1 KH-QUA2 P228S = target: T3, GLD-1 KH-QUA2 P228S (Caenorhabditis elegans, UniProt Q17339 195-336, P228S); assay: NMR HSQC titration
T3 sequence: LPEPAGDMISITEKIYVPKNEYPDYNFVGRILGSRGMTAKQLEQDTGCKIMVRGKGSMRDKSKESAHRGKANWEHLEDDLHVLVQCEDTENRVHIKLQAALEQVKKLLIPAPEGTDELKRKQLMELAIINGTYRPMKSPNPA

Row | Binder | binding result (GLD-1 KH-QUA2 [1]) | Kd (GLD-1 KH-QUA2 [2]) [nM] | binding signal (GLD-1 KH-QUA2 P228A) | binding result (GLD-1 KH-QUA2 P228S)
1 | AUUUAAUUU (ssRNA) [tra-2 TGE weak site] | binds | – | – | –
2 | CUACUCAUAU (ssRNA) [tra-2 TGE strong site] | – | 61 ± 3 | 19 fold decrease in affinity vs wild type | binds

Source: publication PMC4081071
